The RNAGym collection of RNA variant scans (doi:10.1073/pnas.2313332121)

B1: TPR t1 (parent)
chain: GACCAAUCUGCCCUCAGAGCUCGAGAACAUCUUCGGAUGCAGAGGAGGCAGGCUUCGGUGGCGCGAUAGCGCCAACGUCCUCAACCUCCAAUGCAUCCCACCACAUGAUGAUGCCUGAAGAGCCUUGGUUUUUUG

Variants of: B1
Assay: polymerase ribozyme fitness, log enrichment relative to wild type (log ratio); higher = more active; in vitro selection for triplet polymerase activity
In short: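 Genotype fitness is the logarithm of its enrichment divided by wild-type enrichment, using inverse-variance-weighted averages of replicates. That logarithm is base 2. Enrichment was measured by Illumina sequencing of input and output libraries from one triplicate in vitro selection round, with frozen incubation at −7 °C, on PCR-built, transcribed mutant libraries of each subunit of a heterodimeric triplet polymerase ribozyme, retaining genotypes with ≥10 input reads and ≥1 read per output.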

Variant	polymerase ribozyme fitness (log ratio)
C15U A37U C62U	-1.85
A16C G44U U78C	-4.35
A16C G122A	-4.43
A16U C20A C56A	-5.28
C15G C53G C72A U81A G120C C123G	-2.32
C15U G39C G71A	-2.36
C15U G36C U112C	-1.24
G17A A41U A84C	-4.63
A16G G117C	-3.97
C15A U78A	-2.6
C15U C56A G69C U78C A83G U112C U116A	-6.66
A16U G61A U81A C88G	-3.75
A16U C40G C56U U112G	-0.767
A16U C70G	-2.98
C15G C101A	-3.78
C15G C101U	-2.56
A16C C62G A74G C114U	-5.78
C15G C62U	-1.91
C15G C97U	-2.23
G17A G42U U106A	-5.21
A16G A43G C124U U125A	-1.48

Variant	polymerase ribozyme fitness (log ratio)
C15G C34A	-5.11
C15G C70U C82G C88A	-4.4
C15U A18G A37G U54A A100U C115A	-5.29
C15G A118U U131A	-1.47
A16U G23A G36U A46C G47C C73A C114U U129G U132A	-7.62
C15A A41U G60C U133A	-3.25
A16G G71U C123U	-0.364
C15A C82A	-3.12
C15A A46C A84C A91U	-4.15
C15U G44U	-2.59
A16U C89A	-2.6
A16U C85U	-2.77
G17A G69C U112A	-4.29
A16U G117C G120A	-4.52
C15U A16U G58C C72U C80A A111C	-6.92
G17A A18C C22U G35A A75U C79G A90G C99A C124G	-5.46
C15A A37G C79G	-3.88
G17A U55A G63U A84G	-7.59
C15U A37G G71A C80U A118U U133A	-4.3
A16C U112C	-0.921
C15U G44A G47A A105U	-5.8

Variant	polymerase ribozyme fitness (log ratio)
G17A C49G A83U U87C G117A	-3.65
C15G C115A	-2.88
A16U G47U G52U G65U C115U G117C	-6.26
G17A G36U G120C C123U C124G	-1.43
C15G C72U	-3.01
C15A C22A U96A C124U	-5.05
C15G G120C	-0.975
A16C C56U G69U G120A	-3.38
G17C A29G C72A	-5.8
C15U C124G	-0.245
G17A A43G G127A	-4.18
C15U A50U C76U U78A	-3.61
A16G A41C A84U C99A G117C U133C	-4.53
A16C C56G	-2.73
A16C C56U	-2
A16C C56A	-2.44
C15U G63C U129C	-2
A16U U116G	0.557
C15A G63C C88U	-3.01
C15U G61C U125A	-2.92
G17A C40A A43U	-5.48

Variant	polymerase ribozyme fitness (log ratio)
A16G C124U	0.601
C15U G45C G47A C53U U59A A90G C101U	-5.35
C15A G57U C64G	-6.59
G17A C49A G58A G110C	-6.79
A16G A41C A50U U81A U106A	-2.3
C15G C98U	-4.22
C15U A41C G48A C53U C56U C124U	-1.63
C15U C99U C102A G113U A118G	-7.09
C15A G120A	0.181
C15U C79G C98U	-4.8
C15U C82G A108G A111G A121C	-6.58
A16U G42C A43G G45U C73A U129A	-3.44
C15U G42C	-2.79
C15G G42A C88G	-4.44
A16G G52A C56A G69U	-1.69
G17A U38G C115A U116A U131C	-2.73
C15U U78C A83C C97A C101A U109A	-5.99
C15A G47U C115A A121C U133C	-3.65
C15A G61U C89U G122U C124G G135A	-0.759
C15U C34G C53U C114U	-5.11
C15G A50U U109A	-6.25
